These results are taken from patent US20160311911A1, “METHODS FOR TREATING ALLERGIC AIRWAY INFLAMMATION” (priority 2015, published 2016).

For assay [1], the target named is TLR4 on TLR4^Hi HEK 293 cells (TLR4^Hi, CD14^Null, MD2^Null; InvivoGen) (UniProt O00206). Description: flow cytometry; HEK 293 cells incubated with 100 ug/mL BODIPY-RWPE for 30 minutes on ice, then washed. In general terms: A flow cytometer gives signals particle by particle.
The target of assay [2] is TLR4, CD14 and MD2 on TCM^Hi HEK 293 cells (TLR4^Hi, CD14^Hi, MD2^Hi; InvivoGen) (UniProt O00206). The description is as above.
TLR4, CD14 and MD2 on TCM^Hi HEK 293 cells (TLR4^Hi, CD14^Hi, MD2^Hi; InvivoGen), sequence (O00206 24-839 limits assumed, chain 1 of 3): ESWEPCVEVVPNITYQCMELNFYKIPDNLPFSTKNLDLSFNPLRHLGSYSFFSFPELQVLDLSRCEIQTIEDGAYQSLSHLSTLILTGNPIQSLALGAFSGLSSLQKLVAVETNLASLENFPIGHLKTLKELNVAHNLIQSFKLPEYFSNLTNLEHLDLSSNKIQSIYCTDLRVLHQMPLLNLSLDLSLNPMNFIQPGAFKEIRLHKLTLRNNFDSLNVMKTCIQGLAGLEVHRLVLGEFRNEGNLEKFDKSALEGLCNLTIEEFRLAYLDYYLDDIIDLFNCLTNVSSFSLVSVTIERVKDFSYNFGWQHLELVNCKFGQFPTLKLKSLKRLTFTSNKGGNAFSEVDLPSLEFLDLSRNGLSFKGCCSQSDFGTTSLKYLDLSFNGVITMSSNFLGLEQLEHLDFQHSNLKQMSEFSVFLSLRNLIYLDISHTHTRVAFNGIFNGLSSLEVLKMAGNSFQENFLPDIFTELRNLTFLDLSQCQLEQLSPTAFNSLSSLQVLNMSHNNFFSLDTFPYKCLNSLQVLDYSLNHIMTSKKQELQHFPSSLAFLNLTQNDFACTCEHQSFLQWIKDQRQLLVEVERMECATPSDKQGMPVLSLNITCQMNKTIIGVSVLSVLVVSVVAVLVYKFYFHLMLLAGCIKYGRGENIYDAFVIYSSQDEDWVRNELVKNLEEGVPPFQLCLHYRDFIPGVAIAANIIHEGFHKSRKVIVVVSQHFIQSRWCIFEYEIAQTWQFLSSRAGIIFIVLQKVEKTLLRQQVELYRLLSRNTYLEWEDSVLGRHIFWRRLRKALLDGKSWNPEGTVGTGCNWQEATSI
TLR4, CD14 and MD2 on TCM^Hi HEK 293 cells (TLR4^Hi, CD14^Hi, MD2^Hi; InvivoGen), sequence (P08571 20-345 limits assumed, chain 2 of 3, further chain): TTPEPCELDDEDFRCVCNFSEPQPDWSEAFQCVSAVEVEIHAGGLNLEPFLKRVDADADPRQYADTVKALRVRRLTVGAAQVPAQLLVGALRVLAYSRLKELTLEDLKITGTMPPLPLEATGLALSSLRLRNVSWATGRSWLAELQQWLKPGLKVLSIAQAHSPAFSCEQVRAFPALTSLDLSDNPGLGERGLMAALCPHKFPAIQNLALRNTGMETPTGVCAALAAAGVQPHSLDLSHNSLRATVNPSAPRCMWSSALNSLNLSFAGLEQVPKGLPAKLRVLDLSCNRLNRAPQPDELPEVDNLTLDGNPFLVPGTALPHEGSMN
TLR4, CD14 and MD2 on TCM^Hi HEK 293 cells (TLR4^Hi, CD14^Hi, MD2^Hi; InvivoGen), sequence (Q9Y6Y9 19-160 limits assumed, chain 3 of 3, further chain): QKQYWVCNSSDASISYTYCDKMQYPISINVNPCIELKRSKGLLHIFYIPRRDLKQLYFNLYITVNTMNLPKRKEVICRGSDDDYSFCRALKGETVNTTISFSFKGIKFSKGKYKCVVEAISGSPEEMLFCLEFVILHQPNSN

Some results are limits rather than exact numbers.

TLR4 on TLR4^Hi HEK 293 cells (TLR4^Hi, CD14^Null, MD2^Null; InvivoGen), sequence (O00206 24-839 limits assumed): as the sequence (O00206 24-839 limits assumed, chain 1 of 3) above

Regarding “BODIPY-labeled ragweed pollen extract (RWPE)”, the BODIPY-RWPE staining (% by FACS) in assay [1] is below 3%; in assay [2], 12.9%.
